Assay results reported in PMC4278676.

Substrate: Nc1ncnc2c1ncn2[C@@H]1O[C@H](COP(=O)(O)OP(=O)(O)OP(=O)(O)O)[C@@H](O)[C@H]1O
Assay: purified protein
Conditions: co-substrate Co(II)Cbi^+

B1: SeCobA (Salmonella enterica subsp. enterica serovar Typhimurium str. LT2) (protein)
chain: MSDERYQQRQQKVKDRVDARVAQAQEERGIIIVFTGNGKGKTTAAFGTAARAVGHGKNVGVVQFIKGTWPNGERNLLEPHGVEFQVMATGFTWETQNREADTAACMAVWQHGKRMLADPLLDMVVLDELTYMVAYDYLPLEEVISALNARPGHQTVIITGRGCHRDILDLADTVSELRPVKHAFDAGVKAQMGIDY
- Km: 25.4 ± 9.0 µM
- kcat: 0.0067 s⁻¹
- kcat/Km: 260 M⁻¹ s⁻¹
